Each block holds one binder with its values, some of them ahead of it.
Biological target: human IPF1, N-terminus FLAG-tagged (from pcDNA-FLAG-IPF1) (human, UniProt P52945 1-283, limits assumed)
Assay: cell-based or functional assay

human IPF1, N-terminus FLAG-tagged (from pcDNA-FLAG-IPF1), sequence (P52945 whole entry): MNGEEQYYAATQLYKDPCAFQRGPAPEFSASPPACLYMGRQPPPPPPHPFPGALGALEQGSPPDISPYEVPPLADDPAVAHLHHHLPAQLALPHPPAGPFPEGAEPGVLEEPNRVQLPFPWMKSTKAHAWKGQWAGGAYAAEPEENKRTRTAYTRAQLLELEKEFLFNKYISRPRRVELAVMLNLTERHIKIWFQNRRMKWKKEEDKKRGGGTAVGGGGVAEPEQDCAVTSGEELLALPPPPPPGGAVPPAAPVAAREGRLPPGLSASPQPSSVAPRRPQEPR

IPF1-dependent human insulin promoter activity (luciferase reporter, HeLa cells), inhibition: ~60%
B1: human distal-less homeobox 4 (DLX4), N-terminus HA-tagged (other, not shown: small tags and cut ends)
chain: MTSLPCPLPGRDASKAVFPDLAPVPSVAAAYPLGLSPTTAASPNLSYSRPYGHLLSYPYTEPANPGDSYLSCQQPAALSQPLCGPAEHPQELEADSEKPRLSPEPSERRPQAPAKKLRKPRTIYSSLQLQHLNQRFQHTQYLALPERAQLAAQLGLTQTQVKIWFQNKRSKYKKLLKQNSGGQEGDFPGRTFSVSPCSPPLPSLWDLPKAGTLPTSGYGNSFGAWYQHHSSDVLASPQMM
modifications: 35S-methionine-labeled (in the pull-down)

IPF1-dependent human insulin promoter activity (luciferase reporter, HeLa cells), inhibition: ~25%
B2: human PHD finger protein 1 (PHF1), N-terminus HA-tagged (other, not shown: small tags and cut ends)
chain: MAQPPRLSRSGASSLWDPASPAPTSGPRPRLWEGQDVLARWTDGLLYLGTIKKVDSAREVCLVQFEDDSQFLVLWKDISPAALPGEELLCCVCRSETVVPGNRLVSCEKCRHAYHQDCHVPRAPAPGEGEGTSWVCRQCVFAIATKRGGALKKGPYARAMLGMKLSLPYGLKGLDWDAGHLSNRQQSYCYCGGPGEWNLKMLQCRSCLQWFHEACTQCLSKPLLYGDRFYEFECCVCRGGPEKVRRLQLRWVDVAHLVLYHLSVCCKKKYFDFDREILPFTSENWDSLLLGELSDTPKGERSSKLLSALNSHKDRFISGREIKKRKCLFGLHARMPPPVEPPTGDGALTSFPSGQGPGGGVSRPLGKRRRPEPEPLRRRQKGKVEELGPPSAVRNQPEPQEQRERAHLQRALQASVSPPSPSPNQSYQGSSGYNFRPTDARCLPSSPIRMFASFHPSASTAGTSGDSGPPDRSPLELHIGFPTDIPKSAPHSMTASSSSVSSPSPGLPRRSAPPSPLCRSLSPGTGGGVRGGVGYLSRGDPVRVLARRVRPDGSVQYLVEWGGGGIF
modifications: 35S-methionine-labeled (in the pull-down)

IPF1-dependent human insulin promoter activity (luciferase reporter, HeLa cells), inhibition: ~45%
B3: human hepatocyte nuclear factor 3-gamma (HNF3G), N-terminus HA-tagged (other, not shown: small tags and cut ends)
chain: MLGSVKMEAHDLAEWSYYPEAGEVYSPVTPVPTMAPLNSYMTLNPLSSPYPPGGLPASPLPSGPLAPPAPAAPLGPTFPGLGVSGGSSSSGYGAPGPGLVHGKEMPKGYRRPLAHAKPPYSYISLITMAIQQAPGKMLTLSEIYQWIMDLFPYYRENQQRWQNSIRHSLSFNDCFVKVARSPDKPGKGSYWALHPSSGNMFENGCYLRRQKRFKLEEKVKKGGSGAATTTRNGTGSAASTTTPAATVTSPPQPPPPAPEPEAQGGEDVGALDCGSPASSTPYFTGLELPGELKLDAPYNFNHPFSINNLMSEQTPAPPKLDVGFGGYGAEGGEPGVYYQGLYSRSLLNAS
modifications: 35S-methionine-labeled (in the pull-down)

Reference: US20060276387A1 (published 2006)
